Patent US20130251642A1 (US Dept. of Health and Human Services, published 2013)

B1: chimeric rabbit/human IgG1 R11 (antibody, V domains shown)
VH: QSVKESEGDLVTPAGNLTLTCTASGSDINDYPISWVRQAPGKGLEWIGFINSGGSTWYASWVKGRFTISRTSTTVDLKMTSLTTDDTATYFCARGYSTYYCDFNIWGPGTLVTISS
VL: ELVMTQTPSSTSGAVGGTVTINCQASQSIDSNLAWFQQKPGQPPTLLIYRASNLASGVPSRFSGSRSGTEYTLTISGVQREDAATYYCLGGVGNVSYRTSFGGGTEVVVK
notes: IgG1 format from vector PIGG (human gamma 1 heavy and kappa light constant regions), four polypeptide chains, made in HEK 293F cells; Biotinylated for flow cytometry; also called IgG1 11; mAb R11
B2: chimeric rabbit/human Fab R11 (Fab, V domains shown)
VH: B1 VH
VL: B1 VL
notes: Fab with human C kappa and human CH1; For SPR it was the purified Fab-(His)6 from pET11a (HA tag removed, C-terminal His6)
B3: chimeric rabbit/human IgG1 Y31 (antibody, V domains shown)
VH: QSLEESGGRLVTPGTPLTLTCTVSGIDLNSHWMSWVRQAPGKGLEWIGIIAASGSTYYANWAKGRFTISKTSTTVDLRIASPTTEDTATYFCARDYGDYRLVTFNIWGPGTLVTVSS
VL: ELVMTQTPSSVSAAVGGTVTINCQASQSIGSYLAWYQQKPGQPPKLLIYYASNLASGVPSRFSGSGSGTEYTLTISGVQREDAATYYCLGSLSNSDNVFGGGTELEIL
notes: IgG1 format from vector PIGG (human gamma 1 heavy and kappa light constant regions), made in HEK 293F cells; Biotinylated for flow cytometry; also called mAb Y31
B4: chimeric rabbit/human Fab Y31 (Fab, V domains shown)
VH: B3 VH
VL: B3 VL
notes: Fab with human C kappa and human CH1; SPR: purified Fab-(His)6
B5: chimeric rabbit/human IgG1 R12 (antibody, V domains shown)
VH: QEQLVESGGRLVTPGGSLTLSCKASGFDFSAYYMSWVRQAPGKGLEWIATIYPSSGKTYYATWVNGRFTISSDNAQNTVDLQMNSLTAADRATYFCARDSYADDGALFNIWGPGTLVTISS
VL: ELVLTQSPSVSAALGSPAKITCTLSSAHKTDTIDWYQQLQGEAPRYLMQVQSDGSYTKRPGVPDRFSGSSSGADRYLIIPSVQADDEADYYCGADYIGGYVFGGGTQLTVTG
notes: IgG1 format from vector PIGG; The light chain is rabbit V lambda and human C kappa; the heavy chain has the human gamma 1 constant region; Made in HEK 293F cells; Biotinylated for flow cytometry; also called mAb R12
B6: chimeric rabbit/human Fab R12 (Fab, V domains shown)
VH: B5 VH
VL: B5 VL
notes: The light chain is rabbit V lambda with human C kappa; SPR: purified Fab-(His)6

Key:
cell surface human ROR1 [1] = biological target: T1, cell surface human ROR1 (human, UniProt Q01973 30-937); experiment: flow cytometry on primary CLL cells of one patient, IgG1 at 1 µg/mL
T1 construct: whole, on cells; The cell type of each entry is named under assay; also called HEK 293F/hROR1; HEK 293F cells stably transfected with human ROR1
T1 sequence (Q01973 30-937): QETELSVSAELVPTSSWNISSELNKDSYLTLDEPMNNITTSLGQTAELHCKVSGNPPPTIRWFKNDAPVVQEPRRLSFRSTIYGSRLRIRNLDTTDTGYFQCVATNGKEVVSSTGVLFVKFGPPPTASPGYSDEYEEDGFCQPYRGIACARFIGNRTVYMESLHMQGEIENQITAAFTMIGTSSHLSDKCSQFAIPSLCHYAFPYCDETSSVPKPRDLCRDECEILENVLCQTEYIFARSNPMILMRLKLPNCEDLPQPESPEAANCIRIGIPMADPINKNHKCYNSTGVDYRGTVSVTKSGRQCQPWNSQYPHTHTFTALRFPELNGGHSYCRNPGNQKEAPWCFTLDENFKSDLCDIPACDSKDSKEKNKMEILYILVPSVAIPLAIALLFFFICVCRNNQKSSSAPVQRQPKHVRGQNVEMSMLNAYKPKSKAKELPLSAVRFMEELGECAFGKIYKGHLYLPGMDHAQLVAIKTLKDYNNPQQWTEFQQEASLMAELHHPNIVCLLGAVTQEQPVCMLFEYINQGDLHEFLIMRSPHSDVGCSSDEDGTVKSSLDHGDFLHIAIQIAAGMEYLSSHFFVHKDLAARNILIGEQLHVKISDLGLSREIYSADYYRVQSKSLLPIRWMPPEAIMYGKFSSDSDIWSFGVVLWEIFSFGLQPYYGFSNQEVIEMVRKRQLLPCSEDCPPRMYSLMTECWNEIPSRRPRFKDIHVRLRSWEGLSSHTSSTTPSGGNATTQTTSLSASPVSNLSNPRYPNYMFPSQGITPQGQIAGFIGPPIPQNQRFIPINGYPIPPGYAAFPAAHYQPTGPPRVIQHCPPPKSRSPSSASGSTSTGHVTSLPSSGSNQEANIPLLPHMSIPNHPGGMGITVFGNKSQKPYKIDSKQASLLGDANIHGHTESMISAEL

cell surface human ROR1 [2] = biological target: T1, cell surface human ROR1; experiment: flow cytometry on primary CLL cells of one patient, IgG1 at 5 µg/mL
[3] = biological target: T2, Fc-hROR1 (the three extracellular domains of human ROR1 fused to the Fc domain of human IgG1) (human, UniProt Q01973 30-406); experiment: SPR on immobilized Fc-hROR1; bivalent IgG1 R11 against monovalent Fab R11
T2 construct: extracellular domain; also called human ROR1 (Fc-hROR1); not shown: Fc domain of human IgG1
T2 sequence (Q01973 30-406): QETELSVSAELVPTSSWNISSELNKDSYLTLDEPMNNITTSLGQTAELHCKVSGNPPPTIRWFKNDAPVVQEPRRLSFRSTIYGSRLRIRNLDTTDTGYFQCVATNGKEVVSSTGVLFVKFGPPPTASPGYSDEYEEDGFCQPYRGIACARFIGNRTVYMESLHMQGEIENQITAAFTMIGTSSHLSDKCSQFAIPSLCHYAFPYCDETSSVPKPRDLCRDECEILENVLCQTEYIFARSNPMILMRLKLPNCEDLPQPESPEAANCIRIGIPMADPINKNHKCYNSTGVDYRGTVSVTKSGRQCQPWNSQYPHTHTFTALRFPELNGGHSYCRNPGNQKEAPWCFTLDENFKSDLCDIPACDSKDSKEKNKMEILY

cell surface human ROR1 [4] = biological target: T1, cell surface human ROR1; experiment: flow cytometry on primary CLL cells of one patient, IgG1 at 0.1 µg/mL
[5] = biological target: T3, hROR2-Fc (commercially available, R&D Systems) (human, UniProt Q01974 34-403); experiment: ELISA, antigen immobilized, antibody in IgG1 format, absorbance at 405 nm
T3 construct: Bought from R&D Systems; also called human ROR2 (hROR2-Fc); not shown: Fc part of the bought fusion
T3 sequence (Q01974 34-403 limits assumed): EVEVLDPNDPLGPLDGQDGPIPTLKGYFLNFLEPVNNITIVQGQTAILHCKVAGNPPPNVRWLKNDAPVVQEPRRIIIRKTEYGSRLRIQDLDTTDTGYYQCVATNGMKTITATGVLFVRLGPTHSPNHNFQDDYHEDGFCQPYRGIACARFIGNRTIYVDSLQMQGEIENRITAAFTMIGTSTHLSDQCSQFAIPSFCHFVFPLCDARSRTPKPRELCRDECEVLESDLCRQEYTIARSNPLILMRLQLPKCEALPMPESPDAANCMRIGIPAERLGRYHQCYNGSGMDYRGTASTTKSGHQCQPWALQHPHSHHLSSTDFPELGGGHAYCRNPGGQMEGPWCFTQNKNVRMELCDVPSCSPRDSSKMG

Fc-hROR1ig [6] = biological target: T4, Fc-hROR1ig (human, UniProt Q01973 30-147, limits assumed); experiment: ELISA, Fc fusion of one or two domains of human ROR1 immobilized, antibody in IgG1 format, absorbance at 405 nm
T4 construct: domain: Ig; not shown: Fc domain (human IgG1 Fc is stated for Fc-hROR1; not restated for this construct)
T4 sequence (Q01973 30-147 limits assumed): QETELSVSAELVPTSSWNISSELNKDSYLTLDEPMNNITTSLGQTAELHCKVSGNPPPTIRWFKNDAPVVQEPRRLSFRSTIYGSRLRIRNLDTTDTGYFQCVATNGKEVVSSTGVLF

Fc-hROR1fz = biological target: T5, Fc-hROR1fz (human, UniProt Q01973 165-299, limits assumed); experiment: as above
T5 construct: domain: Frizzled; not shown: Fc domain (human IgG1 Fc is stated for Fc-hROR1; not restated for this construct)
T5 sequence (Q01973 165-299 limits assumed): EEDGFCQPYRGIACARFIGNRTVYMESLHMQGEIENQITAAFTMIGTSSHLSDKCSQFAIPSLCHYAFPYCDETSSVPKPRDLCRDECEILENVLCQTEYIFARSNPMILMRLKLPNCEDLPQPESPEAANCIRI

Fc-hROR1ig+fz = biological target: T6, Fc-hROR1ig+fz (human, UniProt Q01973 30-299, limits assumed); experiment: as above
T6 construct: domain: Ig and Frizzled; not shown: Fc domain (human IgG1 Fc is stated for Fc-hROR1; not restated for this construct)
T6 sequence (Q01973 30-299 limits assumed): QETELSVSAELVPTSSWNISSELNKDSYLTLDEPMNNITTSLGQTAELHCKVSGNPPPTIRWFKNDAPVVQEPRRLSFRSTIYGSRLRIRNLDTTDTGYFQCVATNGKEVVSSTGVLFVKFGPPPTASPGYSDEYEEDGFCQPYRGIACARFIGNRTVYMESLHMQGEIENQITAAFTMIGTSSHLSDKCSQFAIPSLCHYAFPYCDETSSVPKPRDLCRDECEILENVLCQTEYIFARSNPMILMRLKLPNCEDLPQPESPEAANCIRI

[7] = biological target: T3, hROR2-Fc (commercially available, R&D …); experiment: ELISA on immobilized hROR2-Fc (Fab data not shown)
[8] = biological target: T2, Fc-hROR1 (the three extracellular …); experiment: SPR on immobilized Fc-hROR1; bivalent IgG1 Y31 against monovalent Fab Y31
Fc-hROR1kr [9] = biological target: T7, Fc-hROR1kr (human, UniProt Q01973 312-391); experiment: ELISA, Fc fusion of one or two domains of human ROR1 immobilized, antibody in IgG1 format, absorbance at 405 nm
T7 construct: domain: Kringle; not shown: Fc domain (human IgG1 Fc is stated for Fc-hROR1; not restated for this construct)
T7 sequence (Q01973 312-391): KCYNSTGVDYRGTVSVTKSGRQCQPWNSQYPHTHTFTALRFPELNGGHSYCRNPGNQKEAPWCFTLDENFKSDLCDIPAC

Fc-hROR1ig [10] = biological target: T4, Fc-hROR1ig; experiment: ELISA on immobilized Fc-hROR1ig (Fab data not shown)
Fc-hROR1kr [11] = biological target: T7, Fc-hROR1kr; experiment: ELISA on immobilized Fc-hROR1kr (Fab data not shown)
[12] = biological target: T2, Fc-hROR1 (the three extracellular …); experiment: SPR on immobilized Fc-hROR1; bivalent IgG1 R12 against monovalent Fab R12
[13] = biological target: T8, Fc-mROR1 (mouse analogue of Fc-hROR1) (mouse, UniProt Q9Z139 30-406); experiment: ELISA, antigen immobilized, antibody in IgG1 format, absorbance at 405 nm
T8 construct: extracellular domain; also called mouse ROR1 (Fc-mROR1); not shown: Fc domain (human IgG1 Fc is stated for Fc-hROR1; not restated for this construct)
T8 sequence (Q9Z139 30-406): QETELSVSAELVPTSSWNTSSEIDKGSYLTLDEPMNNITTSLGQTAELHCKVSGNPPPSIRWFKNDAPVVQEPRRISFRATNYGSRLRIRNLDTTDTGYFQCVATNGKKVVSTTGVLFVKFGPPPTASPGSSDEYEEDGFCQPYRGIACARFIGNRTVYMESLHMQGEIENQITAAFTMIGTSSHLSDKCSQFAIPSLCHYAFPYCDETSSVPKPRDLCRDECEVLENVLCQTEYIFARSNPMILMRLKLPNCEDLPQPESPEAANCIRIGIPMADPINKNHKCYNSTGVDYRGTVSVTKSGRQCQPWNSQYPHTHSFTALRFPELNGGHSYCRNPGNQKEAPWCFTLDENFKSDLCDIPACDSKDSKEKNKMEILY

Fc-hROR1fz+kr = biological target: T9, Fc-hROR1fz+kr (human, UniProt Q01973 165-406, limits assumed); experiment: ELISA, Fc fusion of one or two domains of human ROR1 immobilized, antibody in IgG1 format, absorbance at 405 nm
T9 construct: domain: Frizzled and Kringle; also called Fc-hROR1kr+fz; Fc-ROR1fz+kr; not shown: Fc domain (human IgG1 Fc is stated for Fc-hROR1; not restated for this construct)
T9 sequence (Q01973 165-406 limits assumed): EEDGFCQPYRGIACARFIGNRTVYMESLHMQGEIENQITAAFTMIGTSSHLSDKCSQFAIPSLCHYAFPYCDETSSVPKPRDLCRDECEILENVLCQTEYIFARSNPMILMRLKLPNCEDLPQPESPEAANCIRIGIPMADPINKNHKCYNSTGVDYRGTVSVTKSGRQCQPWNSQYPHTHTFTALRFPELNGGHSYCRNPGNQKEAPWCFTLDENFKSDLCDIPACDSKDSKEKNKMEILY

[14] = biological target: T8, Fc-mROR1 (mouse analogue of Fc-hROR1); experiment: SPR (Biacore X100), Fc-mROR1 immobilized on CM5 chip

Binder	MFI (cell surface human ROR1 [1]) [MFI]	MFI (cell surface human ROR1 [2]) [MFI]	MFI (cell surface human ROR1 [4]) [MFI]	binding result (Fc-hROR1ig [6])	binding result (Fc-hROR1ig+fz)	binding result (Fc-hROR1kr [9])	binding result (Fc-hROR1ig [10])	binding result (Fc-hROR1kr [11])	also measured
B1	18.1	64.9	6.6	no binding (tested: not given)	no binding (tested: not given)				factor of increase of virtual affinity, IgG1 against Fab [3]: 14 fold; binding result [5]: no binding (tested: not given); binding result (Fc-hROR1fz): no binding (tested: not given)
B2									binding result [7]: no binding
B3	8.3	21.6		no binding (tested: not given)	no binding (tested: not given)	no binding (tested: not given)			factor of increase of virtual affinity, IgG1 against Fab [8]: 12 fold
B4							no binding	no binding	
B5	97.9	122	89.4	no binding (tested: not given)		no binding (tested: not given)			factor of increase of virtual affinity, IgG1 against Fab [12]: 5 fold; binding result [13]: no binding (tested: not given); binding result (Fc-hROR1fz+kr): no binding (tested: not given)
B6							no binding	no binding	binding result [14]: no binding (tested: 1.5 to 100 nM)
